Test results taken from the supplement of paper PMC11316812.
± gives the standard deviation of the averaged measurements.

Legend:
hTERT-HMEC = test: percentage of EdU-negative (G0-arrested) nuclei per well, 72 h; higher = more G0 arrest; conditions: reference: sequence is the full UniProt precursor, the tested protein was the secreted form or ectodomain
MCF7 = test: as above; conditions: reference: sequence is the full UniProt precursor, the tested protein was the secreted form or ectodomain
[1] = protein concentration 0.0102857 µM
[2] = protein concentration 0.102857 µM
[3] = protein concentration 0.0225 µM
[4] = protein concentration 0.0307925 µM
[5] = protein concentration 0.307925 µM
[6] = protein concentration 0.0075 µM
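Further: secreted proteins added to cultured cells, EdU pulse at the end, nuclei found by Hoechst imaging, EdU status from nuclear versus surrounding ring intensity ratio, PBS as neutral control.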

Row | Sequence | percentage of EdU-negative (hTERT-HMEC; [3]) | percentage of EdU-negative (hTERT-HMEC; protein concentration 0.225 µM) | percentage of EdU-negative (MCF7; [3]) | percentage of EdU-negative (MCF7; protein concentration 0.225 µM) | other results
1 | MADKVRRQRPRRRVCWALVAVLLADLLALSDTLAVMSVDLGSESMKVAIVKPGVPMEIVLNKESRRKTPVIVTLKENERFFGDSAASMAIKNPKATLRYFQHLLGKQADNPHVALYQARFPEHELTFDPQRQTVHFQISSQLQFSPEEVLGMVLNYSRSLAEDFAEQPIKDAVITVPVFFNQAERRAVLQAARMAGLKVLQLINDNTATALSYGVFRRKDINTTAQNIMFYDMGSGSTVCTIVTYQMVKTKEAGMQPQLQIRGVGFDRTLGGLEMELRLRERLAGLFNEQRKGQRAKDVRENPRAMAKLLREANRLKTVLSANADHMAQIEGLMDDVDFKAKVTRVEFEELCADLFERVPGPVQQALQSAEMSLDEIEQVILVGGATRVPRVQEVLLKAVGKEELGKNINADEAAAMGAVYQAAALSKAFKVKPFVVRDAVVYPILVEFTREVEEEPGIHSLKHNKRVLFSRMGPYPQRKVITFNRYSHDFNFHINYGDLGFLGPEDLRVFGSQNLTTVKLKGVGDSFKKYPDYESKGIKAHFNLDESGVLSLDRVESVFETLVEDSAEEESTLTKLGNTISSLFGGGTTPDAKENGTDTVQEEEESPAEGSKDEPGEQVELKEEAEAPVEDGSQPPPPEPKGDATPEGEKATEKENGDKSEAQKPSEKAEAGPEGVAPAPEGEKKQKPARKRRMVEEIGVELVVLDLPDLPEDKLAQSVQKLQDLTLRDLEKQEREKAANSLEAFIFETQDKLYQPEYQEVSTEEQREEISGKLSAASTWLEDEGVGATTVMLKEKLAELRKLCQGLFFRVEERKKWPERLSALDNLLNHSSMFLKGARLIPEMDQIFTEVEMTTLEKVINETWAWKNATLAEQAKLPATEKPVLLSKDIEAKMMALDREVQYLLNKAKFTKPRPRPKDKNGTRAEPPLNASASDQGEKVIPPAGQTEDAEPISEPEKVETGSEPGDTEPLELGGPGAEPEQKEQSTGQKRPLKNDEL [Q9Y4L1] |  |  |  |  | percentage of EdU-negative (hTERT-HMEC; [1]): 6.45 ± 1.3%; percentage of EdU-negative (hTERT-HMEC; [2]): 35.3 ± 5.6%; percentage of EdU-negative (MCF7; [1]): 23.6 ± 1.2%; percentage of EdU-negative (MCF7; [2]): 30.4 ± 1.7%
2 | MAEAKTHWLGAALSLIPLIFLISGAEAASFQRNQLLQKEPDLRLENVQKFPSPEMIRALEYIENLRQQAHKEESSPDYNPYQGVSVPLQQKENGDESHLPERDSLSEEDWMRIILEALRQAENEPQSAPKENKPYALNSEKNFPMDMSDDYETQQWPERKLKHMQFPPMYEENSRDNPFKRTNEIVEEQYTPQSLATLESVFQELGKLTGPNNQKRERMDEEQKLYTDDEDDIYKANNIAYEDVVGGEDWNPVEEKIESQTQEEVRDSKENIEKNEQINDEMKRSGQLGIQEEDLRKESKDQLSDDVSKVIAYLKRLVNAAGSGRLQNGQNGERATRLFEKPLDSQSIYQLIEISRNLQIPPEDLIEMLKTGEKPNGSVEPERELDLPVDLDDISEADLDHPDLFQNRMLSKSGYPKTPGRAGTEALPDGLSVEDILNLLGMESAANQKTSYFPNPYNQEKVLPRLPYGAGRSRSNQLPKAAWIPHVENRQMAYENLNDKDQELGEYLARMLVKYPEIINSNQVKRVPGQGSSEDDLQEEEQIEQAIKEHLNQGSSQETDKLAPVSKRFPVGPPKNDDTPNRQYWDEDLLMKVLEYLNQEKAEKGREHIAKRAMENM |  |  |  |  | percentage of EdU-negative (hTERT-HMEC; protein concentration 0.006 µM): 5.24 ± 0.54%; percentage of EdU-negative (hTERT-HMEC; protein concentration 0.06 µM): 5.44 ± 0.097%; percentage of EdU-negative (MCF7; protein concentration 0.006 µM): 26.9 ± 0.33%; percentage of EdU-negative (MCF7; protein concentration 0.06 µM): 27.1 ± 1.7%
3 | MAEGNTLISVDYEIFGKVQGVFFRKHTQAEGKKLGLVGWVQNTDRGTVQGQLQGPISKVRHMQEWLETRGSPKSHIDKANFNNEKVILKLDYSDFQIVK [G3V2U7] | 4.35 ± 0.4% | 5.31 ± 0.75% | 24.4 ± 1.6% | 25.9 ± 3.2% | 
4 | MAESAGASSFFPLVVLLLAGSGGSGPRGVQALLCACTSCLQANYTCETDGACMVSIFNLDGMEHHVRTCIPKVELVPAGKPFYCLSSEDLRNTHCCYTDYCNRIDLRVPSGHLKEPEHPSMWGPVELVGIIAGPVFLLFLIIIIVFLVINYHQRVYHNRQRLDMEDPSCEMCLSKDKTLQDLVYDLSTSGSGSGLPLFVQRTVARTIVLQEIIGKGRFGEVWRGRWRGGDVAVKIFSSREERSWFREAEIYQTVMLRHENILGFIAADNKDNGTWTQLWLVSDYHEHGSLFDYLNRYTVTIEGMIKLALSAASGLAHLHMEIVGTQGKPGIAHRDLKSKNILVKKNGMCAIADLGLAVRHDAVTDTIDIAPNQRVGTKRYMAPEVLDETINMKHFDSFKCADIYALGLVYWEIARRCNSGGVHEEYQLPYYDLVPSDPSIEEMRKVVCDQKLRPNIPNWWQSYEALRVMGKMMRECWYANGAARLTALRIKKTLSQLSVQEDVKI | 5.48 ± 0.32% | 6.41 ± 1.6% | 25.1 ± 0.54% | 25.3 ± 3.2% | 
5 | MAFAWWPCLILALLSSLAASGFPRSPFRLLGKRSLPEGVANGIEVYSTKINSKVTSRFAHNVVTMRAVNRADTAKEVSFDVELPKTAFITNFTLTIDGVTYPGNVKEKEVAKKQYEKAVSQGKTAGLVKASGRKLEKFTVSVNVAAGSKVTFELTYEELLKRHKGKYEMYLKVQPKQLVKHFEIEVDIFEPQGISMLDAEASFITNDLLGSALTKSFSGKKGHVSFKPSLDQQRSCPTCTDSLLNGDFTITYDVNRESPGNVQIVNGYFVHFFAPQGLPVVPKNVAFVIDISGSMAGRKLEQTKEALLRILEDMQEEDYLNFILFSGDVSTWKEHLVQATPENLQEARTFVKSMEDKGMTNINDGLLRGISMLNKAREEHRIPERSTSIVIMLTDGDANVGESRPEKIQENVRNAIGGKFPLYNLGFGNNLNYNFLENMALENHGFARRIYEDSDADLQLQGFYEEVANPLLTGVEMEYPENAILDLTQNTYQHFYDGSEIVVAGRLVDEDMNSFKADVKGHGATNDLTFTEEVDMKEMEKALQERDYIFGNYIERLWAYLTIEQLLEKRKNAHGEEKENLTARALDLSLKYHFVTPLTSMVVTKPEDNEDERAIADKPGEDAEATPVSPAMSYLTSYQPPQNPYYYVDGDPHFIIQIPEKDDALCFNIDEAPGTVLRLIQDAVTGLTVNGQITGDKRGSPDSKTRKTYFGKLGIANAQMDFQVEVTTEKITLWNRAVPSTFSWLDTVTVTQDGLSMMINRKNMVVSFGDGVTFVVVLHQVWKKHPVHRDFLGFYVVDSHRMSAQTHGLLGQFFQPFDFKVSDIRPGSDPTKPDATLVVKNHQLIVTRGSQKDYRKDASIGTKVVCWFVHNNGEGLIDGVHTDYIVPNLF | 4.75 ± 1% | 6.22 ± 0.29% | 26.1 ± 2.2% | 27.2 ± 3.3% | 
6 | MAFDVSCFFWVVLFSAGCKVITSWDQMCIEKEANKTYNCENLGLSEIPDTLPNTTEFLEFSFNFLPTIHNRTFSRLMNLTFLDLTRCQINWIHEDTFQSHHQLSTLVLTGNPLIFMAETSLNGPKSLKHLFLIQTGISNLEFIPVHNLENLESLYLGSNHISSIKFPKDFPARNLKVLDFQNNAIHYISREDMRSLEQAINLSLNFNGNNVKGIELGAFDSTIFQSLNFGGTPNLSVIFNGLQNSTTQSLWLGTFEDIDDEDISSAMLKGLCEMSVESLNLQEHRFSDISSTTFQCFTQLQELDLTATHLKGLPSGMKGLNLLKKLVLSVNHFDQLCQISAANFPSLTHLYIRGNVKKLHLGVGCLEKLGNLQTLDLSHNDIEASDCCSLQLKNLSHLQTLNLSHNEPLGLQSQAFKECPQLELLDLAFTRLHINAPQSPFQNLHFLQVLNLTYCFLDTSNQHLLAGLPVLRHLNLKGNHFQDGTITKTNLLQTVGSLEVLILSSCGLLSIDQQAFHSLGKMSHVDLSHNSLTCDSIDSLSHLKGIYLNLAANSINIISPRLLPILSQQSTINLSHNPLDCTCSNIHFLTWYKENLHKLEGSEETTCANPPSLRGVKLSDVKLSCGITAIGIFFLIVFLLLLAILLFFAVKYLLRWKYQHI | 5.21 ± 0.11% | 7.06 ± 0.86% | 27.1 ± 4.8% | 29.8 ± 3.2% | 
7 | MAFLGLFSLLVLQSMATGATFPEEAIADLSVNMYNRLRATGEDENILFSPLSIALAMGMMELGAQGSTQKEIRHSMGYDSLKNGEEFSFLKEFSNMVTAKESQYVMKIANSLFVQNGFHVNEEFLQMMKKYFNAAVNHVDFSQNVAVANYINKWVENNTNNLVKDLVSPRDFDAATYLALINAVYFKGNWKSQFRPENTRTFSFTKDDESEVQIPMMYQQGEFYYGEFSDGSNEAGGIYQVLEIPYEGDEISMMLVLSRQEVPLATLEPLVKAQLVEEWANSVKKQKVEVYLPRFTVEQEIDLKDVLKALGITEIFIKDANLTGLSDNKEIFLSKAIHKSFLEVNEEGSEAAAVSGMIAISRMAVLYPQVIVDHPFFFLIRNRRTGTILFMGRVMHPETMNTSGHDFEEL |  |  |  |  | percentage of EdU-negative (hTERT-HMEC; [4]): 4.97 ± 0.78%; percentage of EdU-negative (hTERT-HMEC; [5]): 49.1 ± 2.1%; percentage of EdU-negative (MCF7; [4]): 22.8 ± 1.4%; percentage of EdU-negative (MCF7; [5]): 27.7 ± 2.1%
8 | MAFLPSWVCVLVGSFSASLAGTSNLSETEPPLWKESPGQLSDYRVENSMYIINPWVYLERMGMYKIILNQTARYFAKFAPDNEQNILWGLPLQYGWQYRTGRLADPTRRTNCGYESGDHMCISVDSWWADLNYFLSSLPFLAAVDSGVMGISSDQVRLLPPPKNERKFCYDVSSCRSSFPETMNKWNTFYQYLQSPFSKFDDLLKYLWAAHTSTLADNIKSFEDRYDYYSKAEAHFERSWVLAVDHLAAVLFPTTLIRSYKFQKGMPPRILLNTDVAPFISDFTAFQNVVLVLLNMLDNVDKSIGYLCTEKSNVYRDHSESSSRSYGNNS [Q6P5S2] | 4.92 ± 0.16% | 5.82 ± 0.65% | 25.7 ± 0.86% | 26.6 ± 0.54% | 
9 | MAFPPRRRLRLGPRGLPLLLSGLLLPLCRAFNLDVDSPAEYSGPEGSYFGFAVDFFVPSASSRMFLLVGAPKANTTQPGIVEGGQVLKCDWSSTRRCQPIEFDATGNRDYAKDDPLEFKSHQWFGASVRSKQDKILACAPLYHWRTEMKQEREPVGTCFLQDGTKTVEYAPCRSQDIDADGQGFCQGGFSIDFTKADRVLLGGPGSFYWQGQLISDQVAEIVSKYDPNVYSIKYNNQLATRTAQAIFDDSYLGYSVAVGDFNGDGIDDFVSGVPRAARTLGMVYIYDGKNMSSLYNFTGEQMAAYFGFSVAATDINGDDYADVFIGAPLFMDRGSDGKLQEVGQVSVSLQRASGDFQTTKLNGFEVFARFGSAIAPLGDLDQDGFNDIAIAAPYGGEDKKGIVYIFNGRSTGLNAVPSQILEGQWAARSMPPSFGYSMKGATDIDKNGYPDLIVGAFGVDRAILYRARPVITVNAGLEVYPSILNQDNKTCSLPGTALKVSCFNVRFCLKADGKGVLPRKLNFQVELLLDKLKQKGAIRRALFLYSRSPSHSKNMTISRGGLMQCEELIAYLRDESEFRDKLTPITIFMEYRLDYRTAADTTGLQPILNQFTPANISRQAHILLDCGEDNVCKPKLEVSVDSDQKKIYIGDDNPLTLIVKAQNQGEGAYEAELIVSIPLQADFIGVVRNNEALARLSCAFKTENQTRQVVCDLGNPMKAGTQLLAGLRFSVHQQSEMDTSVKFDLQIQSSNLFDKVSPVVSHKVDLAVLAAVEIRGVSSPDHVFLPIPNWEHKENPETEEDVGPVVQHIYELRNNGPSSFSKAMLHLQWPYKYNNNTLLYILHYDIDGPMNCTSDMEINPLRIKISSLQTTEKNDTVAGQGERDHLITKRDLALSEGDIHTLGCGVAQCLKIVCQVGRLDRGKSAILYVKSLLWTETFMNKENQNHSYSLKSSASFNVIEFPYKNLPIEDITNSTLVTTNVTWGIQPAPMPVPVWVIILAVLAGLLLLAVLVFVMYRMGFFKRVRPPQEEQEREQLQPHENGEGNSET |  |  |  |  | percentage of EdU-negative (hTERT-HMEC; [6]): 5.23 ± 0.5%; percentage of EdU-negative (hTERT-HMEC; protein concentration 0.075 µM): 7.03 ± 1%; percentage of EdU-negative (MCF7; [6]): 25.7 ± 3.1%; percentage of EdU-negative (MCF7; protein concentration 0.075 µM): 28.8 ± 2%
